Biological target: HA-tagged HNRNPK (heterogeneous nuclear ribonucleoprotein K), wild type (human) (UniProt P61978)
Assay: co-IP; anti-HA agarose beads on lysates of Huh7.5 cells stably expressing HA-tagged HNRNPK or its deletion mutants, 48 h after electroporation with a subgenomic JFH1 replicon or genomic HCV RNA; lysis buffer 20 mM Tris-HCl pH 7.5, 0.5% Nonidet P-40, 1 mM sodium deoxycholate, 100 mM NaCl; 3 h at 4°C; elution with HA peptide; immunoblot; cells with non-tagged HNRNPK as control

## HCV core protein (natural protein)
  percent of the intracellular HCV protein coprecipitated: 1%

Reference: article PMC4287573
